Residue numbers refer to the chain shown, from its start. Numbers in names are those of the source.
B1: mouse AGR2 (21-175) C81E (natural protein, UniProt O88312 21-175, looked up)
chain: KDTTVKSGAKKDPKDSRPKLPQTLSRGWGDQLIWTQTYEEALYRSKTSNRPLMVIHHLDEEPHSQALKKVFAEHKEIQKLAEQFVLLNLVYETTDKHLSPDGQYVPRIVFVDPSLTVRADITGRYSNRLYAYEPSDTALLYDNMKKALKLLKTEL
notes: AGR2, mouse, residues 21-175, active site mutant C81E; also called AGR2 C81E; UK2835; source: T7 Express lysY/Iq E. coli, purified (Ni-NTA, SENP2 cleavage, reverse Ni-NTA); not shown: His6, N-terminal, cleaved; SUMO3, N-terminal, cleaved
B2: mouse AGR2 (21-175) C81S (natural protein, UniProt O88312 21-175, looked up)
chain: B1 chain with E61S
notes: AGR2, mouse, residues 21-175, active site mutant C81S; also called AGR2 C81S; UK2795; source: T7 Express lysY/Iq E. coli, purified (Ni-NTA, SENP2 cleavage, reverse Ni-NTA); not shown: His6, N-terminal, cleaved; SUMO3, N-terminal, cleaved
B3: MBP-hIRE1b_LD_(35-428)-AviTag-His7 (domain or fragment, human, UniProt Q76MJ5 35-428, looked up)
chain: LRPENLLLVSTLDGSLHALSKQTGDLKWTLRDDPVIEGPMYVTEMAFLSDPADGSLYILGTQKQQGLMKLPFTIPELVHASPCRSSDGVFYTGRKQDAWFVVDPESGETQMTLTTEGPSTPRLYIGRTQYTVTMHDPRAPALRWNTTYRRYSAPPMDGSPGKYMSHLASCGMGLLLTVDPGSGTVLWTQDLGVPVMGVYTWHQDGLRQLPHLTLARDTLHFLALRWGHIRLPASGPRDTATLFSTLDTQLLMTLYVGKDETGFYVSKALVHTGVALVPRGLTLAPADGPTTDEVTLQVSGEREGSPSTAVRYPSGSVALPSQWLLIGHHELPPVLHTTMLRVHPTLGSGTAETRPPENTQAPAFFLELLSLSREKLWDSELHPEEKTPDSYLGL
modifications: biotin on the AviTag (endogenous biotinylation of a fraction of the protein in E. coli)
notes: IRE1β (ERN2) luminal domain, human, residues 35-428; No step that cleaves MBP is described; also called IRE1β LD; IRE1β LD probe; source: T7 Express lysY/Iq E. coli, purified (Ni-NTA, amylose resin, two gel filtrations); not shown: AviTag, C-terminal, kept
B4: MBP-hIRE1β LD-mGL-AviTag-His (domain or fragment, human, UniProt Q76MJ5 35-428, looked up)
chain: B3 chain
notes: IRE1β (ERN2) luminal domain, human; C-terminal mGL inserted in the MBP-hIRE1bLD of UK2796 (residues 35-428); also called GFP-tagged IRE1β LD; IRE1β LD-mGL acceptor; source: T7 Express lysY/Iq E. coli, purified (Ni-NTA, amylose resin, two gel filtrations); not shown: MBP, N-terminal, kept; mGL (monomeric Green Lantern), C-terminal, kept

What was measured:
[1] = biological target: MBP-hIRE1β LD ∆C-mGL-AviTag-His (human) (UniProt Q76MJ5); test: mass photometry (ISCAT); IRE1β LD wt or ∆C alone at the indicated concentrations; HK buffer, room temperature (~21 °C)
[2] = biological target: AGR2 (Homo sapiens) (UniProt O95994); conditions: cited from earlier work
[3] = biological target: B3; test: BLI; biotinylated IRE1 LD loaded on streptavidin sensors, exposed sequentially to increasing concentrations of AGR2; 30 °C; HK buffer (50 mM HEPES-KOH pH 7.4, 150 mM KCl) with 0.05% Triton X-100 and 1 mM TCEP; signal against AGR2 concentration fitted to a one-site specific binding function (the methods call the result a KD of binding); conditions: both partners purified
[4] = biological target: T1, mouse AGR2 (21-175) C81S (mouse, UniProt O88312 21-175, C81S); test: BLI; K1/2 max from steady-state one-site fit
T1 sequence: B1 chain with E61S

[5] = biological target: T2, mouse AGR2 (21-175) C81E (mouse, UniProt O88312 21-175, C81E); test: BLI; K1/2 max from steady-state one-site fit
T2 sequence: B1 chain

[6] = biological target: T3, MBP-hIRE1bLD (35-428)-NanoLuc-H6 (human, UniProt Q76MJ5 35-428); test: FRET or BRET; kinetic readings: AGR2 variants or unlabelled IRE1β LD competitor added to the pre-formed IRE1β LD-nanoluc / IRE1β LD-mGL BRET pair; BRET ratio every 20 s, one-phase exponential decay; conditions: both partners purified
T3 construct: IRE1β (ERN2) luminal domain, human, residues 35-428; No step that cleaves MBP is described; also called IRE1β-nluc donor; IRE1β LD-nanoluc; source: T7 Express lysY/Iq E. coli, purified (Ni-NTA, amylose resin, two gel filtrations); not shown: NanoLuc (complete, WT), C-terminal, kept
T3 sequence (looked up): B3 chain

[7] = biological target: the molecule itself; test: mass photometry (ISCAT); IRE1β LD wt or ∆C alone at the indicated concentrations; HK buffer, room temperature (~21 °C)

Question: With “MBP-hIRE1β LD ∆C-mGL-AviTag-His (from UniProt Q76MJ5 35-428) (domain or fragment)” as the molecule, how does the stoichiometry N [1] read?
Answer: 2

Question: For AGR2 (from UniProt O95994), which Kd [2] is on record?
Answer: 8 µM

Question: Does B1 bind [3]?
Answer: binds

Question: Does B2 bind [3]?
Answer: binds

Question: Which Kd [4] does the source give for B3 here?
Answer: 124 µM

Question: What about the Kd [5] of the same molecule?
Answer: 78.5 µM

Question: Does B3 bind [6]?
Answer: binds

Question: For B4, which “stoichiometry N” value [7] is on record?
Answer: 2

— publication PMC10907699, “The IRE1β-mediated unfolded protein response is repressed by the chaperone AGR2 in mucin producing cells” (The EMBO Journal, 2023)
